The target of experiment [1] is T1, CDTb_(D1–D4) monomer (residues 43–876) (Clostridioides difficile, strain not …).
T1 construct: also called full-length (pro) CDTb; pro-CDTb
T1 chain: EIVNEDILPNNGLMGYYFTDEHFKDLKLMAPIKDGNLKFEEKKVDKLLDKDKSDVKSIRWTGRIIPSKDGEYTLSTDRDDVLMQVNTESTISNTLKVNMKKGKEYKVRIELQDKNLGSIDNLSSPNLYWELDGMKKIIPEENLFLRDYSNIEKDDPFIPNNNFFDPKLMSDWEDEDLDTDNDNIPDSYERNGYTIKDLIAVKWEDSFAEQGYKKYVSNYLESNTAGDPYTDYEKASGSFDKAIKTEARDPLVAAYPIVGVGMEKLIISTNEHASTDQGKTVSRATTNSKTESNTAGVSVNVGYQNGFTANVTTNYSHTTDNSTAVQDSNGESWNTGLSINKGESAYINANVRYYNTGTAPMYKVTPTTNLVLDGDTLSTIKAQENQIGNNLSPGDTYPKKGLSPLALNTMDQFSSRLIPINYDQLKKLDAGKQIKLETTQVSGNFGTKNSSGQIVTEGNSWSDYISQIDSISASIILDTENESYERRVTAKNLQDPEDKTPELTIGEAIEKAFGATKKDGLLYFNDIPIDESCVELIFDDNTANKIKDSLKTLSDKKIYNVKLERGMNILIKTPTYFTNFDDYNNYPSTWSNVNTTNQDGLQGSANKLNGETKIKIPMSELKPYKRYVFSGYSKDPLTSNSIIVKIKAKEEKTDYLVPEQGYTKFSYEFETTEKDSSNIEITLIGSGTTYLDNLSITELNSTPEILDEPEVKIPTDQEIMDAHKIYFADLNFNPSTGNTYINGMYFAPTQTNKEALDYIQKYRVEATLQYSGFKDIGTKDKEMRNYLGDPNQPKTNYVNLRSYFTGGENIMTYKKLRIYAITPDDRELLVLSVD
Briefly: SPR; Carterra LSA^XT, SAHC30M chip, 25 °C; biotinylated Nbs captured at eight densities; CDTb constructs injected at 0.3–300 nM (fourfold dilutions) without regeneration; HBS-T (10 mM HEPES pH 7.4, 150 mM NaCl, 0.05% Tween-20) with 0.5 mg/ml BSA; one-to-one kinetics model. The conditions noted are these: both partners purified.

Experiment [2] deals with T2, native CDTb protein in cecal contents of mice infected with C. difficile R20291 (Clostridioides difficile R20291, UniProt A0A9R0BM17, strain).
T2 construct: CDTb made by C. difficile R20291 during infection of mice; source: endogenous, C. difficile R20291, in cecal material of infected mice
In words: ELISA; sandwich ELISA on cecal material of mice infected with R20291 (diluted to 10 mg/ml in PBS-T + 2% BSA): native CDTb bound by the coated capture Nb. The conditions noted are these: one partner purified. A general note: ELISA stands for enzyme-linked immunosorbent assay.

Another experiment concerns the target T3, heptameric CDTb (Clostridioides difficile, strain not …).
T3 construct: the ELISA text says only heptameric CDTb; also called CDTb heptamer; CDTb oligomers
T3 chain: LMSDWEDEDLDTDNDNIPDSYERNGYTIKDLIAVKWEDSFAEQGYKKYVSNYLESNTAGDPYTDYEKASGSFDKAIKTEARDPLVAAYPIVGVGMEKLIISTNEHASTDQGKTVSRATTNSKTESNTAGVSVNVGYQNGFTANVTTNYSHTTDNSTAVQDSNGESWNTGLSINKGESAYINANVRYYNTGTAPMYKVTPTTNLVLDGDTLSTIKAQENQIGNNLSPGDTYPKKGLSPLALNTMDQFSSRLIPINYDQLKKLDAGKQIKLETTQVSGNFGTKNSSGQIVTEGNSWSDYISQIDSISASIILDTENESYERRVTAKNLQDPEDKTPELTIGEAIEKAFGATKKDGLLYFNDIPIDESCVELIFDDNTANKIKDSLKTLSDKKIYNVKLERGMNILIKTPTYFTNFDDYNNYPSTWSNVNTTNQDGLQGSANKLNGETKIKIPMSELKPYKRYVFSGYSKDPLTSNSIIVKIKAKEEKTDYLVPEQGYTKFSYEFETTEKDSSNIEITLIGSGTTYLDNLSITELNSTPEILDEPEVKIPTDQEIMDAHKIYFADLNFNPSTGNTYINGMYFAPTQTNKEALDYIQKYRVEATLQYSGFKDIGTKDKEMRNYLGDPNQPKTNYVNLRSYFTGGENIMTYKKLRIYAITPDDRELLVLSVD
In words: ELISA; sandwich ELISA: nonbiotinylated capture Nb coated (200 ng/well), purified CDTb (activated monomer or heptameric sample) in PBS-T + 2% BSA, biotinylated detection Nb (50 ng/well), streptavidin-HRP; room temperature. The conditions noted are these: both partners purified.

Experiment [3] has as its target T4, activated monomeric CDTb (75 kDa-activated monomer) (Clostridioides difficile).
T4 construct: source: recombinant pro-CDTb trypsinized in vitro, purified (SEC)
T4 chain: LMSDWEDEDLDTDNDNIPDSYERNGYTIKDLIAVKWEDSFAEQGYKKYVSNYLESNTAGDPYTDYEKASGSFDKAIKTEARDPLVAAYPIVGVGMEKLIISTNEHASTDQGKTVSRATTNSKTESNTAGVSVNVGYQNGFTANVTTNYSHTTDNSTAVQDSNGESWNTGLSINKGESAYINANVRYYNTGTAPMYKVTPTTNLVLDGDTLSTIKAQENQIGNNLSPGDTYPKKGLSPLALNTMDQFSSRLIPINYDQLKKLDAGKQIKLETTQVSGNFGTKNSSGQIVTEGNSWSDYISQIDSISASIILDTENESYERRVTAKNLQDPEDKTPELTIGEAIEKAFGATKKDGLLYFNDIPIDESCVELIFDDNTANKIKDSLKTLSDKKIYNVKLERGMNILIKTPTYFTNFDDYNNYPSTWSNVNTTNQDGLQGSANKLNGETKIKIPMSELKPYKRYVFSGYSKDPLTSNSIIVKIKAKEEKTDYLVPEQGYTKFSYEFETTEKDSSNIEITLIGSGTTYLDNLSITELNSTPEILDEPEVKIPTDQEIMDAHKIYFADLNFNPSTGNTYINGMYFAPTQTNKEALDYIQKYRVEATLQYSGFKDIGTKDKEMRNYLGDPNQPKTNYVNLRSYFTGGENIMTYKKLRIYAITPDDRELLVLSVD
Described as above. The conditions noted are these: both partners purified.

In experiment [4] the target is T5, CDTbD3′ (Clostridioides difficile, strain not …).
T5 chain: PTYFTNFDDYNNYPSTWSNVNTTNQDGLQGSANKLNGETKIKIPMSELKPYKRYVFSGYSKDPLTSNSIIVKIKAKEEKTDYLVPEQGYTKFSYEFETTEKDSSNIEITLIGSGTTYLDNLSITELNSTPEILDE
In words: SPR; Carterra LSA^XT, SAHC30M chip, 25 °C; biotinylated Nbs captured at eight densities; CDTb constructs injected at 0.3–300 nM (fourfold dilutions) without regeneration; HBS-T (10 mM HEPES pH 7.4, 150 mM NaCl, 0.05% Tween-20) with 0.5 mg/ml BSA; one-to-one kinetics model. As to conditions: both partners purified. (In general: Surface plasmon resonance follows binding to a sensor surface in real time, without labels.)

Experiment [5] concerns the target T6, CDTb_(D2–D3′) (210–749) (Clostridioides difficile, strain not …, UniProt O32739). In words: SPR; […] (10 mM HEPES pH 7.4, 150 mM NaCl, 0.05% Tween-20) with 0.5 mg/ml BSA; […]. The conditions noted are these: both partners purified.
In experiment [6] the target is T7, CDTbD4 (760–876) (Clostridioides difficile, strain not …, UniProt O32739).
T7 construct: also called domain 4
Briefly: SPR; Carterra LSA^XT, SAHC30M chip, 25 °C; biotinylated Nbs captured at eight densities; CDTb constructs injected at 0.3–300 nM (fourfold dilutions) without regeneration; HBS-T (10 mM HEPES pH 7.4, 150 mM NaCl, 0.05% Tween-20) with 0.5 mg/ml BSA; one-to-one kinetics model. As to conditions: both partners purified.

For experiment [7], the target named is T2, native CDTb protein in cecal contents …. In words: ELISA; sandwich ELISA on cecal material of mice infected with R20291: biotinylated detection Nb on the captured native CDTb. The conditions noted are these: one partner purified.
Experiment [8] concerns the target T5, CDTbD3′. In words: SPR; Carterra LSA^XT, SAHC30M chip, 25 °C; biotinylated Nbs captured at eight densities; CDTb constructs injected at 0.3–300 nM (fourfold dilutions) without regeneration; HBS-T (10 mM HEPES pH 7.4, 150 mM NaCl, 0.05% Tween-20) with 0.5 mg/ml BSA; one-to-one kinetics model. As to conditions: both partners purified.
Experiment [9] concerns the target T6, CDTb_(D2–D3′) (210–749). Briefly: SPR; […] (10 mM HEPES pH 7.4, 150 mM NaCl, 0.05% Tween-20) with 0.5 mg/ml BSA; […]. The conditions noted are these: both partners purified. This is another data set of the same source.
Experiment [10] concerns the target T7, CDTbD4 (760–876). In words: SPR; Carterra LSA^XT, SAHC30M chip, 25 °C; biotinylated Nbs captured at eight densities; CDTb constructs injected at 0.3–300 nM (fourfold dilutions) without regeneration; HBS-T (10 mM HEPES pH 7.4, 150 mM NaCl, 0.05% Tween-20) with 0.5 mg/ml BSA; one-to-one kinetics model. As to conditions: both partners purified. The source holds these as a separate data set.

Experiment [11] deals with T1, CDTb_(D1–D4) monomer (residues 43–876). The description is as above. As to conditions: both partners purified.

B1: Nb A9 (VHH)
VHH: QVQLQESGGGLVQPGGSLRLSCTSSTNMLEFTAVAWWRQAPGKQRDLLAVITRAGVPNYADSKGRFAISRDNAKNTVDLLINTLEPDDTAVYTCNARTSGNINYWGQGTQVTVSS
notes: also called C1A9; source: Expi293F, transfected, purified from supernatant (TALON resin)
For orientation: Kd means the free concentration of one partner at which half of the binding sites on the other are occupied at equilibrium, for simple one-to-one binding. Higher therefore signals a looser complex. Broadly, the koff is the first-order rate constant of dissociation. Higher therefore signals a short-lived complex. As a reminder, the kon is a measure of how fast the partners come together. High values mean faster complex formation, low ones slower complex formation. For the molecule B1, the Kd is 0.024 nM in experiment [1], ≤ 0.031 nM with CDTbD3′ [4] and 0.02 nM in the experiment with CDTb_(D2–D3′) (210–749) [5]. For the same molecule, the off-rate (koff) was 3.2e-05 s⁻¹ in experiment [1], ≤ 1e-05 s⁻¹ in the experiment with CDTbD3′ [4] and 1.4e-05 s⁻¹ with CDTb_(D2–D3′) (210–749) [5]. The kon in [1] is 1e+06 M⁻¹ s⁻¹; with CDTbD3′ [4] it was 330000 M⁻¹ s⁻¹; with CDTb_(D2–D3′) (210–749) [5], 710000 M⁻¹ s⁻¹. Moreover, the binding result in [2] is recorded as “binds”; with heptameric CDTb, “binds”; in experiment [3] it was “binds”; with CDTbD4 (760–876) [6], “no binding”.

B2: Nb C6 (VHH)
VHH: QVQLQESGGGLVEPGGSLRLSCVASGIVVASSTMSWYRQAPGKQRELVAQIFSGGNTNYRDSVRGRFTISKDNAKNTAYLQMDNLEPDDTAVYYCYARGFWGQGTQVTVSS
notes: also called C1C6; source: Expi293F, transfected, purified from supernatant (TALON resin)
For the molecule B2, the Kd was 0.018 nM in experiment [1] and 0.035 nM with CDTb_(D2–D3′) (210–749) [5]. The figures for the koff (in experiment [1]; in the experiment with CDTb_(D2–D3′) (210–749) [5]) were 1.4e-05 s⁻¹ and 4.4e-05 s⁻¹, respectively. Besides, the kon is 790000 M⁻¹ s⁻¹ in experiment [1] and 1.3e+06 M⁻¹ s⁻¹ with CDTb_(D2–D3′) (210–749) [5]. Moreover, the binding result is recorded as “binds” in [3], “binds” in [7], “no binding” in the experiment with CDTbD3′ [8] and “no binding” with CDTbD4 (760–876) [6].

B3: Nb H8 (VHH)
VHH: QVQLQESGGGLVQPGRSLRLSCEASDFSLNTFGAGWFRQVPGKEREGVSCISPSNSSTYYADSVKGRFTISRDNAKNTIYLQMNSLKPEDTGVYFCAARPITSAQALCTLLVSDSFTSWGQGTQVTVSS
notes: also called C1H8; source: Expi293F, transfected, purified from supernatant (TALON resin)
Turning to B3, the Kd in experiment [1] was 1.6 nM; with CDTbD4 (760–876) [10] it was 0.63 nM; in [11], 1.9 nM. In addition, the values for the koff (in [1]; with CDTbD4 (760–876) [10]) were 0.00089 s⁻¹ and 0.00083 s⁻¹, respectively. The on-rate (kon) in [1] is 560000 M⁻¹ s⁻¹; with CDTbD4 (760–876) [10], 1.4e+06 M⁻¹ s⁻¹. The values for the binding result (with CDTb_(D2–D3′) (210–749) [9]; in [3]; with CDTbD3′ [8]) were “no binding”, “binds” and “no binding”, respectively.

Source of the values: article PMC12828747, “Nanobodies against Clostridioides difficile CDTb provide a toolkit for potent toxin neutralization and highly sensitive quantitation” (The Journal of Biological Chemistry, 2025).
